In the RNAGym collection of RNA variant scans (doi:10.1093/nar/gkz1192):

B1: CPEB3 Ribozyme (parent)
chain: UAACAGGGGGCCACAGCAGAAGCGUUCACGUCGCAGCCCCUGUCAGAUUCUGGUGAAUCUGCGAAUUCUGCUGUAUAUCUC

Variants of: B1
Assay: self-cleavage, relative activity (ratio to wild type); higher = more cleavage; in vitro, sequencing
How it was run: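 Relative activity was defined as the cleaved/total read fraction for a variant divided by the same fraction for the unmutated ribozyme. CPEB3 self-cleaving ribozyme libraries were made by rounds of error-prone PCR, barcoded, and transcribed in vitro with T7 RNA polymerase for 5 hours at 37°C, and cleavage ran through transcription plus a 15 min DNase I step before EDTA. Illumina sequencing of template-switched reverse transcripts gave the reads, and DNA sequencing mapped the barcodes. Averages come from three batches, using variants with at least 5 reads.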

Variant	self-cleavage
G22A C68G	0.11
G22A G52U	0.38
G22A G53A	0.6
G22A G63A	0.27
G22A U25A	0.18
G22A U26A	0.38
G22A U26C	0.19
G22A U31A	0.34
G22A U41A	0.19
G22A U41C	0.37
G22A U43A	0.38
G22A U43G	0.09
G22A U48A	0.07
G22A U48C	0.19
G22A U48G	0.32
G22A U49C	0.11
G22A U51C	0.2
G22A U51G	0.17
G22A U54C	0.2
G22A U58C	0.27
G22A U60A	0.08
G22A U60C	0.28
G22A U67A	0.32
G22A U67C	0.09

Variant	self-cleavage
G22A U69A	0.24
G22A U69G	0.06
G22A U72C	0.23
G22A U74C	0.5
G22A U76C	0.25
G22A U78C	0.19
G22A U80C	0.5
G22C	0.26
G22C A35G	0.32
G22C A35U	0.12
G22C A56G	0.21
G22C A56U	0.14
G22C A57G	0.32
G22C A64G	0.24
G22C A64U	0.16
G22C A65G	0.32
G22C A75G	0.13
G22C A75U	0.24
G22C C29U	0.1
G22C C37G	0.09
G22C C62U	0.16
G22C G42U	0.11
G22C G52C	0.2
G22C G53C	0.07

Variant	self-cleavage
G22C G55U	0.22
G22C U25C	0.45
G22C U31A	0.12
G22C U41A	0.29
G22C U41C	0.1
G22C U67A	0.16
G22C U67C	0.11
G22C U69C	0.15
G22C U72C	0.2
G22C U74G	0.19
G22C U78A	0.06
G22C U80G	0.27
G22U	0.27
G22U A28G	0.17
G22U A28U	0.17
G22U A35U	0.09
G22U A45G	0.22
G22U A56G	0.2
G22U A64G	0.36
G22U A75C	0.23
G22U A75G	0.39
G22U A75U	0.26
G22U C59U	0.16
G22U C71U	0.08

Variant	self-cleavage
G22U G46A	0.17
G22U G61C	0.14
G22U U25C	0.2
G22U U26A	0.26
G22U U26C	0.11
G22U U31A	0.32
G22U U31C	0.11
G22U U41A	0.17
G22U U41C	0.27
G22U U43A	0.34
G22U U43C	0.3
G22U U60A	0.17
G22U U60C	0.07
G22U U66C	0.52
G22U U66G	0.17
G22U U67C	0.06
G22U U72A	0.15
G22U U72C	0.3
G22U U76A	0.33
G22U U80C	0.24
C23A	0.3
C23A A28G	0.18
C23A A28U	0.14
C23A A35G	0.27

Variant	self-cleavage
C23A A35U	0.31
C23A A45C	0.34
C23A A45G	0.23
C23A A47G	0.41
C23A A47U	0.47
C23A A56G	0.2
C23A A57G	0.26
C23A A64G	0.53
C23A A65G	0.28
C23A C34U	0.22
C23A C38U	0.49
C23A C39U	0.23
C23A C40G	0.23
C23A C44U	0.08
C23A C62U	0.21
C23A C79A	0.26
C23A C81G	0.22
C23A G24A	0.13
C23A G36U	0.25
C23A G52U	0.15
C23A G63A	0.09
C23A G73A	0.23
C23A U25A	0.27
C23A U25C	0.36

Variant	self-cleavage
C23A U26A	0.49
C23A U31C	0.23
C23A U41A	0.35
C23A U41C	0.34
C23A U43A	0.28
C23A U43C	0.23
C23A U48C	0.16
C23A U49A	0.25
C23A U51A	0.37
C23A U51C	0.27
C23A U54C	0.18
C23A U58A	0.18
C23A U58C	0.56
C23A U60A	0.19
C23A U60C	0.33
C23A U60G	0.06
C23A U66A	0.1
C23A U67A	0.16
C23A U67C	0.17
C23A U69C	0.12
C23A U72A	0.08
C23A U72C	0.41
C23A U74A	0.23
C23A U76C	0.21

Variant	self-cleavage
C23A U78A	0.21
C23A U78C	0.12
C23A U78G	0.08
C23A U80A	0.23
C23A U80C	0.12
C23A U80G	0.51
C23G	0.26
C23G A28G	0.17
C23G A28U	0.23
C23G A35U	0.19
C23G A45G	0.21
C23G A47G	0.28
C23G A56G	0.23
C23G A56U	0.4
C23G A57G	0.16
C23G A64G	0.08
C23G A64U	0.26
C23G A65U	0.22
C23G A75G	0.14
C23G A75U	0.07
C23G A77C	0.27
C23G A77G	0.67
C23G A77U	0.36
